T1: GST–regnase-1^D141N (human, UniProt Q5D1E8 1-599, D141N)
T1 sequence (looked up): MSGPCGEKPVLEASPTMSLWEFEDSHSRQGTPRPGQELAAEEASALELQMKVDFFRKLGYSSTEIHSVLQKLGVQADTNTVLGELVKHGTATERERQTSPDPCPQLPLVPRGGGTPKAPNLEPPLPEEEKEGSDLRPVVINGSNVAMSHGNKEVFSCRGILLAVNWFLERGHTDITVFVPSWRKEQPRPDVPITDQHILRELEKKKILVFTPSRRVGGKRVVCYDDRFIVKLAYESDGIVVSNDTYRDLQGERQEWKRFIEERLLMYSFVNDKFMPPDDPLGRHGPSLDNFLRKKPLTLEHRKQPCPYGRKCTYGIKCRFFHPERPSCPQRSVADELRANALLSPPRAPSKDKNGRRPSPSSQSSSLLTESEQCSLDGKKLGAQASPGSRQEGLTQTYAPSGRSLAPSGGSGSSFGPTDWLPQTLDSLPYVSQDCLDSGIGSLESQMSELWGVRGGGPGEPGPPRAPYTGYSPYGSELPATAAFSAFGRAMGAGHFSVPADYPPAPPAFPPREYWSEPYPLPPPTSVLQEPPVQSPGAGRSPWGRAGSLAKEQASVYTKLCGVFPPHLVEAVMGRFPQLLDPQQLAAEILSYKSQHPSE

B1: Roquin-1^aa2-440;E212K (domain or fragment, UniProt Q4VGL6 2-440, looked up)
chain: PVQAPQWTDFLSCPICTQTFDETIRKPISLGCGHTVCKMCLNKLHRKACPFDQTTINTDIELLPVNSALLQLVGAQIPEQQPITLCSGVEDTKHYEEAKKCVEELALYLKPLSSARGVGLNSTTQSVLSRPMQRKLVTLVHCQLVEEEGRIRAMRAARSLGERTVTELILQHQNPQQLSSNLWAAVRARGCQFLGPAMQEEALKLVLLALKDGSALSRKVLVLFVVQRLEPRFPQASKTSIGHVVQLLYRASCFKVTKRDEDSSLMQLKEEFRTYEALRREHDSQIVQIAMEAGLRIAPDQWSSLLYGDQSHKSHMQSIIDKLQTPASFAQSVQELTIALQRTGDPANLNRLRPHLELLANIDPSPDAPPPTWEQLENGLVAVRTVVHGLVDYIQNHSKKGADQQQPPQHSKYKTYMCRDMKQRGGCPRGASCTFAHSQ
B2: Roquin-1^aa2-440;M199R (domain or fragment, UniProt Q4VGL6 2-440, looked up)
chain: PVQAPQWTDFLSCPICTQTFDETIRKPISLGCGHTVCKMCLNKLHRKACPFDQTTINTDIELLPVNSALLQLVGAQIPEQQPITLCSGVEDTKHYEEAKKCVEELALYLKPLSSARGVGLNSTTQSVLSRPMQRKLVTLVHCQLVEEEGRIRAMRAARSLGERTVTELILQHQNPQQLSSNLWAAVRARGCQFLGPARQEEALKLVLLALEDGSALSRKVLVLFVVQRLEPRFPQASKTSIGHVVQLLYRASCFKVTKRDEDSSLMQLKEEFRTYEALRREHDSQIVQIAMEAGLRIAPDQWSSLLYGDQSHKSHMQSIIDKLQTPASFAQSVQELTIALQRTGDPANLNRLRPHLELLANIDPSPDAPPPTWEQLENGLVAVRTVVHGLVDYIQNHSKKGADQQQPPQHSKYKTYMCRDMKQRGGCPRGASCTFAHSQ
B3: Roquin-1^aa2-440;L209Y (domain or fragment, UniProt Q4VGL6 2-440, looked up)
chain: PVQAPQWTDFLSCPICTQTFDETIRKPISLGCGHTVCKMCLNKLHRKACPFDQTTINTDIELLPVNSALLQLVGAQIPEQQPITLCSGVEDTKHYEEAKKCVEELALYLKPLSSARGVGLNSTTQSVLSRPMQRKLVTLVHCQLVEEEGRIRAMRAARSLGERTVTELILQHQNPQQLSSNLWAAVRARGCQFLGPAMQEEALKLVLYALEDGSALSRKVLVLFVVQRLEPRFPQASKTSIGHVVQLLYRASCFKVTKRDEDSSLMQLKEEFRTYEALRREHDSQIVQIAMEAGLRIAPDQWSSLLYGDQSHKSHMQSIIDKLQTPASFAQSVQELTIALQRTGDPANLNRLRPHLELLANIDPSPDAPPPTWEQLENGLVAVRTVVHGLVDYIQNHSKKGADQQQPPQHSKYKTYMCRDMKQRGGCPRGASCTFAHSQ

Each binder was assayed against T1, GST–regnase-1^D141N (assay: pull-down).
With B1 the “fold reduction of binding against SUMO–roquin-1^aa2-440 wild type” value (shortened to “fold reduction of binding”) was 2 fold. With B2 the “fold reduction of binding” value was 2 fold. In the case of B3, the “fold reduction of binding” value is reported as 2 fold.

— article PMC8996344 (Nature immunology, 2021)
